Assays:
Her-3 = biological target: T1, Her-3 (human, UniProt P21860 20-1342); assay: IHC on FFPE 293H3-clone 1 cells over-expressing HER3
T1 construct: whole, on cells; In the IHC and VERATAG assays the protein stood in formalin-fixed, paraffin-embedded cells or tumor sections; also called ErbB3; c-erb-B3

Her-2 = biological target: T2, Her-2 (human, UniProt P04626 23-1255); assay: IHC on FFPE SKOV3 cells (high HER2, low HER3)
T2 construct: whole, on cells; also called ErbB2; c-Erb-B2

T1 sequence (P21860 20-1342): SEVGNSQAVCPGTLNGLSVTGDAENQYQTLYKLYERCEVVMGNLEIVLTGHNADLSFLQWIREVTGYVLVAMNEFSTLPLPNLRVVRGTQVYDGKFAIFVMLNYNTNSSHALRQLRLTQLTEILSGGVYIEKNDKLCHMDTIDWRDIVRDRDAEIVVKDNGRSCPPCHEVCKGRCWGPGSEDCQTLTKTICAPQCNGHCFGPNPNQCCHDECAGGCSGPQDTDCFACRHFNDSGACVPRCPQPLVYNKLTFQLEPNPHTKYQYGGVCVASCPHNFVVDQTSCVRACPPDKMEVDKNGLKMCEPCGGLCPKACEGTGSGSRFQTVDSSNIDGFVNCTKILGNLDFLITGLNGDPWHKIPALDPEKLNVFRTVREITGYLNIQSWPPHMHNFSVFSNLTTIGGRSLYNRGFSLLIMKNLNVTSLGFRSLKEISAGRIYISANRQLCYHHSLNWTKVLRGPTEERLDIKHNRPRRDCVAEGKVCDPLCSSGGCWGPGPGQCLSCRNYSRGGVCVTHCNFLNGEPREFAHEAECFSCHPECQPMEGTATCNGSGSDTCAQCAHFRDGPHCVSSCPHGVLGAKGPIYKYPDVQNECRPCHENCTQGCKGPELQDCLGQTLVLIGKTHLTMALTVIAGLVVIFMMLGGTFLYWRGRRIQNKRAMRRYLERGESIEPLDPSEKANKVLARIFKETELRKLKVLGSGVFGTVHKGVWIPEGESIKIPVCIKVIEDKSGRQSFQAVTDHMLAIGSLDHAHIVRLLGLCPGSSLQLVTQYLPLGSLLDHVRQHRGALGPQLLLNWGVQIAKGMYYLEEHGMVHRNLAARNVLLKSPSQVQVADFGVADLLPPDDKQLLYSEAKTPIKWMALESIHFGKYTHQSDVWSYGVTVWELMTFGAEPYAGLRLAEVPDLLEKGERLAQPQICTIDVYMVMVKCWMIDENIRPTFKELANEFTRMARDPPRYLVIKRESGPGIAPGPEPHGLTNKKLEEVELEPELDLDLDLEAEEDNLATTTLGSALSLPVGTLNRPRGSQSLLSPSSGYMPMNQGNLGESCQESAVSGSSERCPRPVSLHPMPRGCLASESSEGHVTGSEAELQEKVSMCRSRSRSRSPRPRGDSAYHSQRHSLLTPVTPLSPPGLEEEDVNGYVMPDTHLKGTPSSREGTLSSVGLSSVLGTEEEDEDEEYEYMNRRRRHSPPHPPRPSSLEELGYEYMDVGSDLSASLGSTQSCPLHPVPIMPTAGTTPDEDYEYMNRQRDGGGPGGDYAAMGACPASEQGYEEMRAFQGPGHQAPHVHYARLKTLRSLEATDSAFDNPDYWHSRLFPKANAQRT

B1: Her3.B9A11.H1 (antibody, V domains shown)
VH: EVQLQQPGTVLARPGASVRMSCKASGYTFTSYWMHWVKQRPGQGLEWIGAIYPGNSDTRDNQKFKGKAELTAVTSASTAYMELSSLTNEDSAVYYCTSYYFDGAGYFDFWGQGTTLTVSS
VL: DIVMSQSPSSLAVSAGEKVTLSCKSSQSLLNSRTRKNYLAWYQQKPGQSPKLLIYWASTRESGVPDRFTGSGSGTDFTLTVSSVQAEDLAVYYCKQSYNLWTFGGGTKLEIK
notes: Mouse hybridoma monoclonal antibody; The matched isotype control is IgG1; also called B9A11-biotin
**Q.** What does the source list for B1?
**A.** binding result (Her-3): binds; binding result (Her-2): no binding

Source: patent US20160061839A1 (LABORATORY CORPORATION OF AMERICA, published 2016)
